From publication PMC5429858

Test system: EZH2 (recombinant PRC2 complex)
Assay: pull-down (streptavidin) + western
Conditions: Folding buffer 100 mM KCl, 50 mM Tris-HCl, 5 mM MgCl2, 0.1 mM CaCl2, 0.5 mM ZnCl2 with BSA and RNase inhibitor (pH not given); PNA 30 min 37 C (legend: 1 h …)

HOTAIR full-length lncRNA was tested, and the binding signal (% reduction of binding) was 80.
